Values of other authors, collected in article PMC10522771.

How the values were obtained:
CBP TAZ1 (Homo sapiens) = CBP TAZ1 (Homo sapiens) (UniProt Q92793)
CBP TAZ2 (Homo sapiens) = CBP TAZ2 (Homo sapiens) (UniProt Q92793)
Chain of CBP TAZ2 (Homo sapiens) (Q92793 1764-1855): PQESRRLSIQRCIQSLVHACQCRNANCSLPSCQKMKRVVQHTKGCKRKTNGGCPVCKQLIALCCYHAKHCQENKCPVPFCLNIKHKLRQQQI

Chain of MITF N-terminal TAD (O75030 224-295): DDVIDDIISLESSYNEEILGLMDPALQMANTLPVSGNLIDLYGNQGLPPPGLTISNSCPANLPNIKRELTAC
Chain of CBP TAZ1 (Homo sapiens) (Q92793 340-439): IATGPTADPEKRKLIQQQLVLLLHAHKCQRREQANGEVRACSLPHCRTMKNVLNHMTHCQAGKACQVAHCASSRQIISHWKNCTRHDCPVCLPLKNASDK

Kd (CBP TAZ1 (Homo sapiens)): 6.7 µM | Kd (CBP TAZ2 (Homo sapiens)): 1.2 µM
Substance: MITF N-terminal TAD (from UniProt O75030)
